Here are results for 1 molecule from publication PMC3615019, “Mapping the Binding Interface between an HIV-1 Inhibiting Intrabody and the Viral Protein Rev” (PLoS ONE, 2013).

In this experiment the target is T1, HIV-1 Rev protein (mobility shift assay, bound to stem-loop IIB RRE RNA) (HIV-1, strain  for this …, UniProt P04618).
T1 construct: also called IIB associated Rev
As to the kind of experiment: native gel or EMSA. The settings on record: both partners purified.

T1 sequence (P04618 whole entry): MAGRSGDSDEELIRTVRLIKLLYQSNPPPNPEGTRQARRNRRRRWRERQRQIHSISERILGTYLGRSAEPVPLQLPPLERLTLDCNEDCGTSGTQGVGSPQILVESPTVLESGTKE

B1: Nb190, wild type, purified from E. coli (VHH)
VHH: QVQLQESGGGLVQAGGSLRLSCAASGSIFSINTMGWYRQAPGKQRELVAFATSGGSTNYPDSVKGRFTISRDNVKNTVYLQMNSLKPEDTAVYYCNIDGFLGSLYKDYWSQGTQVTVSS
For the molecule B1, the binding result is “binds”.
